# Source: the DeepSol protein solubility set
# Assay: soluble on expression in E. coli; label from the status in PepcDB or PDB records
row,Sequence,soluble on expression in E. coli
1,MAHHHHHHMNRLTNTNKGYTTNKEYISNNAQKNICTINYGQTYSNILNDEEKEKILQQYIYTLSHLSIIDIDREKDISLNISLLLKACLASHNYIKNVEIYTSQIKNQDICSFIYENRTDFEDFVNTHILKYIEFFNKDKIEDTLQSYIKDKILYDNELNIFNIIKNNNIELRKDILQDISFECIRLNKIIQYSLAVNKLDLFSYHIIFKIFMYFKTDQFYYHLFLNNIQKIKYYYSIKNITDQHKEIIYKIVDKYLYIIHYMNNMYQNRDIKNV,not soluble
2,MSNSSAHSSFGTSNDSFSSVQSVILPPVGPFGQKKRTFEYIGVTLVVDKLKLAEWMNGIGKLFGSAELRDNVTNLHMQLVPVIDTLKKVSHLSSEKTKKEIMTLIEEYKTLVVVCENMLDRMEKSADFHSTDMLNDPVLEKQE,not soluble
3,MEGRIPPHSLEAEQSVLGAILLDYQVLDEIEGLLPTPEAFYAEAHRKIYAAMQGLRAEGSPVDLVTLAEELSRRGELDGVGGISYLMQLSEATPTAAYAEHYARIVAEKWTLRRLIQAAGEAMRLAYEEAGSLDEILDQAGKRILEVALAQTEVEARSMRELVHETFEHIEALFQNKGETAGVRTGFKELDQLIGTLAPGSLNIIAARPAMGKTAFALTIAQHAALKEGVGVGIYSLEMPAAQLVLRMMCSEARIDMNRVRLGQLSDRDFSRLVDVAGRLSEAPIFIDDTPDLTLMELRARARRLRSQHNVGLIIIDYLQLMSGPGGGQKGENRQQEIAAISRGLKALARELGVPVIALSQLSRAVEARPNKRPMLSDLRESGSIEQDADLVMFIYRDEYYNPHSEKAGIAEIIVGKQRNGPTGTVELQFHAQHVRFNDLAKEP,soluble
4,MSKVKTRFAPSPTGYLHLGNARTAIFSYLFARHNNGGFVLRIEDTDPERSKKEYEEMLIEDLKWLGIDWDEFYRQSERFDIYREYVNKLLESGHAYPCFCTPEELEKEREEARKKGIPYRYSGKCRHLTPEEVEKFKKEGKPFAIRFKVPENRTVVFEDLIKGHIAINTDDFGDFVIVRSDGSPTYNFVVVVDDALMGITHVIRGEDHIPNTPKQILIYEALGFPVPKFAHLPVILGEDRSKLSKRHGAVSVRAYREEGYMPEALFNYLCLLGWSPPEEGREIFSKEELIKIFDLKDVNDSPAVFNKEKLKWMNGVYIREVLPLDVLLERAIPFLEKAGYDTSDREYIKKVLEYTRDSFDTLSEMVDRLRPFFVDEFEIPEELWSFLDDEKAYQVLSAFLEKIREKKPETPQEVKKLAKEIQKALKVKPPQVWKPLRIALTGELEGVGIDILIAVLPKEKIEKRILRVLEKLS,soluble
5,MRGKVYLVGAGFGGPEHLTLKALRVLEVAEVVLHDRLVHPGVLALAKGELVPVGKEGYGGKTPQEAITARLIALAREGRVVARLKGGDPMVFGRGGEEALALRRAGIPFEVVPGVTSAVGALSALGLPLTHRGLARSFAVATGHDPALPLPRADTLVLLMPLHTLGGLKERLLERFPPETPLALLARVGWPGEAVRLGRVEDLPGLGEGLPSPALLVVGKVVGLYGELLPKDHGL,soluble
6,GLDTLDRDGDGSTADADCNDFAPTIHPGAAEATLDGVDSNCDGRDSGVAEVVETFKNPGTYSSPVINFKIASPPGPGTPIYGPPRDFSGYNKSYSLAIGKTSYYDPTTGTKWNDDTITPVSDGQDIWRGWTHTGKWSFFNGKAGDKITLSVQRDAQEASLKGAHPGFILFWRPEGGPLFWAGTQDLDEGQTALPADSDTVIGHVIVQHADWTLQGLPPKADHTAPAGVDTELYPMKPDSYTMYYVDSGYDADKYVASKKLIMHPTAFKGLALNDGTAGAFTKSITLPKTGYYMLYVANVLEVDDWSVDADGKLTTTGEVWEVPAKGCWVNITISKP,soluble
7,MKIINLQFPNKYSAKKKEFVLAMGYFDGLHLGHRAVIQQAKRIADKQHLKLALLTYSQSPAGFYVNDPVLKVPILPFRQKMQMLEKLGVDTIFLIDYNLTFGSQSPEDYVDNYLAKLGASVVVAGFDHTYGSLKDKADMKHLPRYANGRFEVYTVRECSDYFGKISSTRIRRLLSEGDLQAVNELLGYQFQTVGFVVHGNQIGRRIGFPTANQALEEKQLLPKSGVYAVRTKIVTGPLAGRSFNGMASIGRNETFGSDNPITIEINLFDFSADVYDEEIIVYWISFLREQVKYANAEALIDQLKQDRIDSLDLLKEIPKSKNYS,not soluble
8,MSLDNRFPVCINTMKLTMPKLEVYYPSIGGISDINVQKKMNNTILNLVYQMIEDQGYYKNTETTITGYFEIKNNQRGILSLTLSNYAFSGGAHGMTIMKSLTFNVETGEEYSLSQLFKPGSNYVKVLSELIKVQIRERDIPVIEEFCAIKPNQDFYIADKILVLYFQLYELVPYAYGFPQFPISVYTIQDIINEDGPLGRMLYEGHHHHHH,soluble
9,KQAQVDYLALPGDAKLDTRSVDYKCENGRKFTVQYLNKGDNSLAVVPVSDNSTLVFSNVISASGAKYAAGQYIWWTKGEEATLYGDWKGGEPTDGVACKER,soluble
10,MKVDLNSDLGESFGRYKLGLDDEVMKYITSANVACGWHAGDPLVMRKTVRLAKKNNVQVGAHPGYPDLMGFGRRYMKLTPEEARNYILYQIGALYAFVKAEGLELQHVKPHGALYNAMVKEEDLARAVIEGILDFDKRLIVVTLAGSRVVEIAREMGARVAQEGFADRAYNPDGTLVPRSRPGAVIEDKEEIAERVISMVKDGGIRAINGEWIELEVDTICVHGDNPKAVEITAYIRRRLEEEGVKVLPMGDFIK,soluble
11,MGSDKIHHHHHHASEEDPWESINRPIFTFNDTLDTYALKPLAQGYQKVTPNFVQDGVHNFFNNLGDVKNLANNLLQAKFHNAGVDTSRLLFNSTFGLAGLIDVATPMGLQRNDEDFGQTLGYWGVGSGPYVMLPFLGPSTLRDAPAKIPDIYVSPYHYMDDVRARNVMFGINTVDTRANLLKSEKLISGDKYIFIRNAYLQNREFKVKDGEVEDDF,not soluble
12,KTDPRSMNSRVFIGNLNTLVVKKSDVEAIFSKYGKIVGCSVHKGFAFVQYVNERNARAAVAGEDGRMIAGQVLDINLAAEPKVNR,soluble
13,SYRSRSAFKLLEVNERHQILRPGLRVLDCGAAPGAWSQVAVQKVNAAGTDPSSPVGFVLGVDLLHIFPLEGATFLCPADVTDPRTSQRILEVLPGRRADVILSDMAPNATGFRDLDHDRLISLCLTLLSVTPDILQPGGTFLCKTWAGSQSRRLQRRLTEEFQNVRIIKPEASRKESSEVYFLATQYHGRKGTVKQ,soluble
14,MGSDKIHHHHHHMTMTNTPRQDSPFEKPVRVRAGFSLTFDVPYATPMIFVVQPQDRLSPTGTRQRIIDQRPLAAAEGIHTYTDTHGNLIWRTVAQPGEFTIGHDLIAEIERRPDPQLPGLRKMMVEELPDDVLQYLLPSRYVDSDLVSAEAWERFGNVQGGWAQVQAVCDYLFDTCVYGYGSNSTTTASQALGSGRAVCRDFAHMGVAFCRALNIPARYVCGYMPDIDYPPDPVPMDFHAWFEAFIDGEWRTFDARHNIPRTGRVLIAQGRDASDVAFTTSFGSAKLVNMKVWADETDFDNTLDIAPNPRIF,not soluble
15,MGHKLAFNFNLEINGSDTHSTVDVYLDDSQIITFDGKDIRPTIPFMIGDEIFLPFYKNVFSEFFSLFRRVPTSTPYEDLTYFYECDYTDNKSTFDQFYLYNGEEYTVKTQEATNKNMWLTTSEFRLKKWFDGEDCIMHLRSLVRKMEDSKRNTG,not soluble
16,MGSDKIHHHHHHMRIAVIGGGASGMVTAYLLDKQGHHITVFERQPMLGGHIRTLNKNVKPNQSDCNEMLESGVLEFPTVFHNFVALMQELGVELEPIRVGSALFPKDGSPFFSKVTNENNYTGIQRFIEYLRFDTIHTRSLGLWLKTRFAQMEDFYNRPLSQYVNNQSISNTWLKLLTMYSYSMPFELIDNFPAEMGIPMLRDYLAVKWLRIKGGVYSYIEKILERFQGEVLLNVEIVNISRSPDGVIIQRSHGEIQEFDKVVFATPPDQVIALLADPTEAEIKRFSDWKANYATTTIHTDIFMYDHHHIHHPSEFDFFQTDTQWGYNSCLNQLCGISSPQHYFLSFQLEELIAKDRIIHTQEHHTPLYTTESFRYRDEVVATNGENNTYYAGAYLGDGLHEGAIASAFRVAQLIGSPLAVSISGFNDRNADTVEIAADTAGIGKYLTHPRFHRS,not soluble
17,MTNPLLTPFELPPFSKILPEHVVPAVTKALNDCRENVERVVAQGAPYTWENLCQPLAEVDDVLGRIFSPVSHLNSVKNSPELREAYEQTLPLLSEYSTWVGQHEGLYKAYRDLRDGDHYATLNTAQKKAVDNALRDFELSGIGLPKEKQQRYGEIATRLSELGNQYSNNVLDATMGWTKLVTDEAELAGMPESALAAAKAQAEAKELEGYLLTLDIPSYLPVMTYCDNQALREEMYRAYSTRASDQGPNAGKWDNSKVMEEILALRHELAQLLGFENYAFKSLATKMAENPQQVLDFLTDLAKRARPQGEKELAQLRAFAKAEFGVDELQPWDIAYYSEKQKQHLYSISDEQLRPYFPENKAVNGLFEVVKRIYGITAKERKDVDVWHPDVRFFELYDENNELRGSFYLDLYARENKRGGAWMDDCVGQMRKADGSLQKPVAYLTCNFNRPVNGKPALFTHDEVITLFHEFGHGLHHMLTRIETAGVSGISGVPWDAVELPSQFMENWCWEPEALAFISGHYETGEPLPKELLDKMLAAKNYQAALFILRQLEFGLFDFRLHAEFRPDQGAKILETLAEIKKLVAVVPSPSWGRFPHAFSHIFAGGYAAGYYSYLWADVLAADAFSRFEEEGIFNRETGQSFLDNILSRGGSEEPMDLFKRFRGREPQLDAMLEHYGIKG,soluble
18,TKAHRDAARRIAAESFVLLKNDNVTLRPGTPAEPLLPFNPKGNIAVIGPLADSRTNMPGTWSVAAVLDRCPSLVEGLKEMTAGKANILYAKGSNLISDASYEERATMFGRSLNRDNRTDEQLLNEALTVANQSDIIIAALGESSEMSGESSSRTDLNIPDVQQNLLKELLKTGKPVVLVLFTGRPLTLTWEQEHVPAILNVWFGGSEAAYAIGDALFGYVNPGGKLTMSFPKNVGQIPLYYAHKNTGRPLAQGKWFEKFRSNYLDVDNEPLYPFGYGLSYTTFSYGDIDLSR,not soluble
19,MNSALDFAFPATFPVKSSSVGGHRIASPGFSSRLRLCSLPPSSSIKAESCLKRDVHRQRSSLESMFCYDKPIPEEIIEEPVGLSMSEREIGDNQRCTCCEAKGALLCSTCSGTGLYVDSIMESQGIIVKVRCLGCGGSGNIMCKLCGGRGHVGH,not soluble
20,MLGIHRYDENLPPDELARDYLERTLFVMERVKFHTLAHLDYPARYAKADFKANRDLIEKILVFLVKNEKALEINTAGLFKHGKPNPDYWIVEMYYDLGGRVVTIGSDAHESQHIGRG,soluble
21,MKFKKLFSRLLLATGIMFAGTFTYQNIEHTHVSKAASYNYYTKGQCTWWAYQRRAQLGKPVSNRWGNAKNWYYNAKRSGYRTGHTPKRYAVMQSTAGYYGHVAVVERVYSNGSIKVSEYNYNRPSAYGTRYLSKWSARNYNYIYLEHHHHHH,not soluble
22,MIVNKPQFDENELGEGTAVQVTSGNPFGRPNYSNNKHDWNAVVVEFSPLMISVAGYNKEEHDRVETMNITIDSIVKEHVTLKKLVVELPKIQCEAGPEND,not soluble
23,MSLMSSDQQGKCPVDEETKKLWLREHGNEAHPGATAPGNQLECSANPQDNDKTPEYHTTVDLSQSREVSTIPRTNSDRNWIYPSEKQFYEAMMKKNWDPNSDDMKVVVPLHNSINERVWNYIKSWEDKQGGEACGGIKLTNFKGDSKKLTPRAWFRSRILHLAKPFDRHDWQIDRCGKTVDYVIDFYSTDLNDANSQQQPLIYLDVRPKLNSFEGFRLRFWKSLGFEGHHHHHH,soluble
